Assay results from publication doi:10.1101/2021.12.09.472013 (bioRxiv, 2021).

Biological target: the molecule itself
Assay: fluorescence fluctuation spectroscopy

| Protein | normalized brightness b | stoichiometry N |
| --- | --- | --- |
| SS-torsinA^WT-EGFP (natural protein, UniProt O14656 21-332, looked up) VEPISLGLALAGVLTGYIYPRLYCLFAECCGQKRSLSREALQKDLDDNLFGQHLAKKIILNAVFGFINNPKPKKPLTLSLHGWTGTGKNFVSKIIAENIYEGGLNSDYVHLFVATLHFPHASNITLYKDQLQLWIRGNVSACARSIFIFDEMDKMHAGLIDAIKPFLDYYDLVDGVSYQKAMFIFLSNAGAERITDVALDFWRSGKQREDIKLKDIEHALSVSVFNNKNSGFWHSSLIDRNLIDYFVPFLPLEYKHLKMCIRVEMQSRGYEIDEDIVSRVAEEMTFFPKEERVFSDKGCKTVFTKLDYYYDD | > 3 | – |
| SS-EGFP-torsinA^50-332 (domain or fragment, UniProt O14656 50-332, looked up) CGQKRSLSREALQKDLDDNLFGQHLAKKIILNAVFGFINNPKPKKPLTLSLHGWTGTGKNFVSKIIAENIYEGGLNSDYVHLFVATLHFPHASNITLYKDQLQLWIRGNVSACARSIFIFDEMDKMHAGLIDAIKPFLDYYDLVDGVSYQKAMFIFLSNAGAERITDVALDFWRSGKQREDIKLKDIEHALSVSVFNNKNSGFWHSSLIDRNLIDYFVPFLPLEYKHLKMCIRVEMQSRGYEIDEDIVSRVAEEMTFFPKEERVFSDKGCKTVFTKLDYYYDD | ~8 | – |
| SS-EGFP-torsinA^ΔNTD (natural protein, UniProt O14656 21-332, looked up) VEPISCLFAECCGQKRSLSREALQKDLDDNLFGQHLAKKIILNAVFGFINNPKPKKPLTLSLHGWTGTGKNFVSKIIAENIYEGGLNSDYVHLFVATLHFPHASNITLYKDQLQLWIRGNVSACARSIFIFDEMDKMHAGLIDAIKPFLDYYDLVDGVSYQKAMFIFLSNAGAERITDVALDFWRSGKQREDIKLKDIEHALSVSVFNNKNSGFWHSSLIDRNLIDYFVPFLPLEYKHLKMCIRVEMQSRGYEIDEDIVSRVAEEMTFFPKEERVFSDKGCKTVFTKLDYYYDD | ~13 | – |
| SS-EGFP-torsinA^WT (natural protein, UniProt O14656 21-332, looked up) VEPISLGLALAGVLTGYIYPRLYCLFAECCGQKRSLSREALQKDLDDNLFGQHLAKKIILNAVFGFINNPKPKKPLTLSLHGWTGTGKNFVSKIIAENIYEGGLNSDYVHLFVATLHFPHASNITLYKDQLQLWIRGNVSACARSIFIFDEMDKMHAGLIDAIKPFLDYYDLVDGVSYQKAMFIFLSNAGAERITDVALDFWRSGKQREDIKLKDIEHALSVSVFNNKNSGFWHSSLIDRNLIDYFVPFLPLEYKHLKMCIRVEMQSRGYEIDEDIVSRVAEEMTFFPKEERVFSDKGCKTVFTKLDYYYDD | – | ≥ 3 |
